From paper PMC12747378, “FtsZ phosphorylation modulates tail-core binding to tune cell division in Bacillus subtilis” (PLOS One, 2025)
Values joined by “and” are separate entries in the source; they are usually repeats but may differ in a detail not shown here. Identical values can stand only once. Values belong to the binder of their own block, whether it stands above or below them.

Tests used:
Conditions in all cases: both partners purified
[1] = molecular target: T1, FtsZ core (residues 1-315) D210A/D213A (Bacillus subtilis, UniProt P17865 1-315, D210A | D213A); assay: ITC; 5 µM full-length FtsZ or FtsZ core in the cell, 50 µM FtsZ tail or MinCN in the syringe; TKEG buffer (50 mM Tris pH 8, 50 mM KCl, 1 mM EDTA, 5% glycerol), 25°C; 20 injections of 2 µL; each replicate fitted
T1 construct: FtsZ of Bacillus subtilis, globular core, residues 1-315, D210A/D213A; The sheet's label 'AA' is tied to D210A/D213A by the mean Kd (500.6 nM); Vector and tag as for 'FtsZ and variants'; also called FtsZ Core AA; acidic patch mutant; source: E. coli One Shot BL21 Star (DE3), purified (TALON resin, eluted with AcTEV protease); not shown: His6, N-terminal, cleaved
T1 sequence (looked up): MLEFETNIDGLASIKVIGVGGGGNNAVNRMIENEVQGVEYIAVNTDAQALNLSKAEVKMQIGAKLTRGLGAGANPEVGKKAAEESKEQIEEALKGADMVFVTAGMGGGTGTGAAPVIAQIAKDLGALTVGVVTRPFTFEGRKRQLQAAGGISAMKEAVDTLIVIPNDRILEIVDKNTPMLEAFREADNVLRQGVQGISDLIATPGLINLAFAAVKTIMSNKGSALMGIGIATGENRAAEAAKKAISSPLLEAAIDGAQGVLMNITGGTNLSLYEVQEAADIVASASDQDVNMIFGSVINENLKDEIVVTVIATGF

[2] = molecular target: T2, FtsZ core (residues 1-315), wild type (Bacillus subtilis, UniProt P17865 1-315); assay: as above
T2 construct: FtsZ of Bacillus subtilis, globular core, residues 1-315; The plasmid paragraph names 'full-length B. subtilis FtsZ and variants' in pET-28a (His6, TEV site); also called FtsZ Core WT; tailless core; source: E. coli One Shot BL21 Star (DE3), purified (TALON resin, eluted with AcTEV protease); not shown: His6, N-terminal, cleaved
T2 sequence (looked up): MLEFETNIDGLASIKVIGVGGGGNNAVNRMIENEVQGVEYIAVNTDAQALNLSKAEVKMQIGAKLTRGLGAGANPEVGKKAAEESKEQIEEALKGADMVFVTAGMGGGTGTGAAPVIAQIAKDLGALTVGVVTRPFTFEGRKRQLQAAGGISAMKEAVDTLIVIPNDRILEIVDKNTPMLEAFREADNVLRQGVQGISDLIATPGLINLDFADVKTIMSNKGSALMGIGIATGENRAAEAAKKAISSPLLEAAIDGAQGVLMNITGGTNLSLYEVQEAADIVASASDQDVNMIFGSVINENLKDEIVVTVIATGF

[3] = molecular target: T3, FtsZ core (residues 1-315) M292H/I293W/F294K (Bacillus subtilis, UniProt P17865 1-315, M292H | I293W | F294K); assay: as above
T3 construct: FtsZ of Bacillus subtilis, globular core, residues 1-315, M292H/I293W/F294K; Vector and tag as for 'FtsZ and variants'; also called FtsZ Core HWK; MIF pocket triple mutant; source: E. coli One Shot BL21 Star (DE3), purified (TALON resin, eluted with AcTEV protease); not shown: His6, N-terminal, cleaved
T3 sequence (looked up): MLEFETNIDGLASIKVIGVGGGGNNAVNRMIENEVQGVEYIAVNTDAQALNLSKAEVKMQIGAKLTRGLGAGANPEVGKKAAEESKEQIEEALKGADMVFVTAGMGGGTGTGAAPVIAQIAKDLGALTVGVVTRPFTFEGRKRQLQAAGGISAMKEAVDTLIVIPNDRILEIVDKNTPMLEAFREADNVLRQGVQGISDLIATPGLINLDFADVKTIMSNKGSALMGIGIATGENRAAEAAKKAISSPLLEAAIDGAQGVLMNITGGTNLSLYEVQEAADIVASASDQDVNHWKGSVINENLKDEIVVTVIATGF

[4] = molecular target: T2, FtsZ core (residues 1-315), wild type; assay: ITC; competition: FtsZ tail titrated into a pre-formed MinCN:Core complex (45 µM MinCN + 5 µM Core, 9:1, ~99% occupancy); TKEG buffer, 25°C
[5] = molecular target: T4, FtsZ core (residues 1-315) (Bacillus subtilis, UniProt P17865 1-315); assay: ITC; full-length FtsZ or FtsZ core (5 µM) in the cell, FtsZ tail or MinCN (50 µM) in the syringe; TKEG buffer (50 mM Tris pH 8, 50 mM KCl, 1 mM EDTA, 5% glycerol), 25°C; one-site model
T4 construct: FtsZ, Bacillus subtilis, globular core, residues 1-315; The printed purification is TALON resin with elution by AcTEV protease; also called FtsZ globular core; tailless core; source: E. coli BL21 Star (DE3), purified
T4 sequence (looked up): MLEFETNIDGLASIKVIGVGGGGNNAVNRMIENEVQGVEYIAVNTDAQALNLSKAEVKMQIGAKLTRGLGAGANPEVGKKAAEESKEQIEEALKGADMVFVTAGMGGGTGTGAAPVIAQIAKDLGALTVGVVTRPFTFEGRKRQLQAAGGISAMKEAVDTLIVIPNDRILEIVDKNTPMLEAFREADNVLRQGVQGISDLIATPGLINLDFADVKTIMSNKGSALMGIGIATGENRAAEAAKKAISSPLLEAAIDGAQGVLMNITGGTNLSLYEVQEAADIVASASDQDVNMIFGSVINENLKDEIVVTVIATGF

Kd [1]: 428 nM and 529 nM and 545 nM
stoichiometry N [1]: 1.18 and 1.24 and 1.1 and 1.17
Kd [2]: 260 nM and 222 nM and 229 nM and 202 nM
stoichiometry N [2]: 1.09 and 1.05 and 1.03 and 1.01
binding result [3]: binds
stoichiometry N [4]: 1.03 and 0.948 and 0.919 and 0.965
B1: FtsZ tail (residues 316-382), wild type (domain or fragment, Bacillus subtilis, UniProt P17865 316-382, looked up)
chain: IEQEKDVTKPQRPSLNQSIKTHNQSVPKREPKREEPQQQNTVSRHTSQPADDTLDIPTFLRNRNKRG
notes: FtsZ of Bacillus subtilis, C-terminal tail, residues 316-382; Cloned into pGEX-6P-3 with a PreScission site; also called FtsZ Tail WT; C-terminal tail; source: E. coli One Shot BL21 Star (DE3), purified

Kd [5]: > 2000 nM
B2: FtsZ tail (residues 316-382) S333E (domain or fragment, Bacillus subtilis, UniProt P17865 316-382, looked up)
chain: IEQEKDVTKPQRPSLNQEIKTHNQSVPKREPKREEPQQQNTVSRHTSQPADDTLDIPTFLRNRNKRG
notes: FtsZ, Bacillus subtilis, C-terminal tail, residues 316-382, S333E; pGEX-6P-3 with PreScission site; cleavage of GST not described; also called S333E tail variant; source: E. coli BL21 Star (DE3), purified

Kd [5]: > 2000 nM
B3: FtsZ tail (residues 316-382) I334E (domain or fragment, Bacillus subtilis, UniProt P17865 316-382, looked up)
chain: IEQEKDVTKPQRPSLNQSEKTHNQSVPKREPKREEPQQQNTVSRHTSQPADDTLDIPTFLRNRNKRG
notes: FtsZ, Bacillus subtilis, C-terminal tail, residues 316-382, I334E; pGEX-6P-3 with PreScission site; cleavage of GST not described; also called I334E tail mutant; source: E. coli BL21 Star (DE3), purified

Kd [5]: > 2000 nM
B4: FtsZ tail (residues 316-382) K335A/H337A (domain or fragment, Bacillus subtilis, UniProt P17865 316-382, looked up)
chain: IEQEKDVTKPQRPSLNQSIATANQSVPKREPKREEPQQQNTVSRHTSQPADDTLDIPTFLRNRNKRG
notes: FtsZ, Bacillus subtilis, C-terminal tail, residues 316-382, K335A/H337A; pGEX-6P-3 with PreScission site; cleavage of GST not described; also called K335A/H337A tail double mutant; source: E. coli BL21 Star (DE3), purified

Kd [5]: > 2000 nM
B5: FtsZ tail (residues 316-382) S333A (domain or fragment, Bacillus subtilis, UniProt P17865 316-382, looked up)
chain: IEQEKDVTKPQRPSLNQAIKTHNQSVPKREPKREEPQQQNTVSRHTSQPADDTLDIPTFLRNRNKRG
notes: FtsZ, Bacillus subtilis, C-terminal tail, residues 316-382, S333A; pGEX-6P-3 with PreScission site; cleavage of GST not described; also called S333A tail variant; source: E. coli BL21 Star (DE3), purified
